{"source": "patent US20140031526A1", "about": "(YISSUM RESEARCH DEVELOPMENT COMPANY OF THE HEBREW …, published 2014)", "proteins": {"B1": {"name": "6H-15mer-CBD fusion protein (dragline spider silk 15mer fused to Clostridium cellulovorans CBDclos, with His tags and S-tag) (other)", "chain": "MHHHHHHSSGLVPRGSGMKETAAAKFERQHMDSPDLGTDDDDKAMASGRGGLGGQGAGAAAAAGGAGQGGYGGLGSQGTSGRGGLGGQGAGAAAAAGGAGQGGYGGLGSQGTSGRGGLGGQGAGAAAAAGGAGQGGYGGLGSQGTSGRGGLGGQGAGAAAAAGGAGQGGYGGLGSQGTSGRGGLGGQGAGAAAAAGGAGQGGYGGLGSQGTSGRGGLGGQGAGAAAAAGGAGQGGYGGLGSQGTSGRGGLGGQGAGAAAAAGGAGQGGYGGLGSQGTSGRGGLGGQGAGAAAAAGGAGQGGYGGLGSQGTSGRGGLGGQGAGAAAAAGGAGQGGYGGLGSQGTSGRGGLGGQGAGAAAAAGGAGQGGYGGLGSQGTSGRGGLGGQGAGAAAAAGGAGQGGYGGLGSQGTSGRGGLGGQGAGAAAAAGGAGQGGYGGLGSQGTSGRGGLGGQGAGAAAAAGGAGQGGYGGLGSQGTSGRGGLGGQGAGAAAAAGGAGQGGYGGLGSQGTSGRGGLGGQGAGAAAAAGGAGQGGYGGLGSQGTSMAATSSMSVEFYNSNKAAQTNSITPIIKITNTADSDLNLNDVKVRYYYTSDGTQGQTFWGDHAGALLGNSYVDNTGKVTANFVKETASPTSTYDTYVEFGFASGAATLKKGQFITIQGRITKSDWSNYAQTNDYSFDASSSTPVVNPKVTGYIGGAKVLGTAPGPDVPSSIINPTSATFDLEHHHHHH", "notes": "Expressed in E. coli BL21(DE3) from pET30a and purified on Ni-NTA; also called Silk-CBD; 6H-Silk-CBD"}}, "biological_target": "the molecule itself", "assay": "FPLC gel filtration before and after sonication (self-association)", "data": [{"protein": "B1", "values": [{"measurement": "binding result", "value": "binds"}]}]}
